Results on 20 molecules are retold here after patent US20110135657A1 (published 2011).

Experiment [1] has as its target T1, soluble human β-Klotho (Biacore, Example 8) (human, UniProt Q86Z14 53-996, limits assumed).
T1 construct: also called soluble β-Klotho
As to the kind of experiment: Biacore competition binning; test antibody injected over soluble receptor captured on immobilized 24H11, 17D8 or 1A2.1. The source says: Soluble human FGFR1c/β-Klotho ECD-Fc complex or β-Klotho was then captured on the immobilized antibody surfaces.

For experiment [2], the target named is T2, human FGF21 receptor (FGF21R): full length human FGFR1c and full length human β-Klotho co-expressed at the … (human, UniProt P11362 22-822; Q86Z14 53-1044). As to the kind of experiment: cell-based or functional assay.
Experiment [3] addresses T2, human FGF21 receptor (FGF21R): full …. As to the kind of experiment: cell-based or functional assay. This is another data set of the same source.

B1: 18G1 (antibody, human IgG2, kappa, V domains shown)
VH: EVQLLESGGGLVQPGGSLRLSCAASRFTFSTYAMSWVRQAPGKGLEWVSGISGSGVSTHYADSVKGRFTISRDNSKNTLYLQMNSLRAEDTAVYYCAKSLIVVIVYALDHWGQGTLVTVSS
VL: EIVLTQSPGTLSLSPGERATLSCRASQNFDSSYLAWYQQKPGQAPRLLIYGTSSRATGIPDRFSGIGSGTDFTLTINRLEPEDFAMYYCQQYGGSPLTFGGGTEVEIKR
notes: fully human monoclonal antibody; full chains H5/L4
Turning to B1, in experiment [1], the binding result was “binds”.

B2: 40D2 (antibody, human IgG2, kappa, V domains shown)
VH: QVQLQESGPGLVKPSQTLSLTCTVSGGSISSGGYNWSWIRQHPGKGLEWIGNIYYSGSTYYNPSLKSRVTISVDTSKNQFSLKLRSVTAADTAVYYCARENIVVIPAAIFAGWFDPWGQGTLVTVSS
VL: DFVMTQTPLSLSVTPGQPASISCKSSQSLLQSDGKTYLYWYLQKPGQPPHLLIYEVSNRFSGVPDRFSGSGSGTDFTLKISRVEAEDVGVYYCMQSIQLPRTFGQGTKVEIKR
notes: fully human monoclonal antibody
For the molecule B2, in experiment [1], the binding result is listed as “binds”.

B3: 16H7 variant, heavy chain I83T (antibody, human IgG2, lambda, V domains shown)
VH: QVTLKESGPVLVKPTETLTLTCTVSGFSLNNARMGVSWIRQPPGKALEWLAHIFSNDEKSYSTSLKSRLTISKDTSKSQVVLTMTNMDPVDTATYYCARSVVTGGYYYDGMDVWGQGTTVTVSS
VL: SYVLTQPPSVSVAPGQTARITCGGNNIGSESVHWYQQKPGQAPVLVVYDDSDRPSGIPERFSGSNSGNTATLTISRVEAGDEADYYCQVWDGNSDHVVFGGGTKLTVLG
Take B3: the “EC50 (nM), Erk-phosphorylation, human adipocyte assay” value (“EC50 (nM), Erk-phosphorylation” for short) in experiment [2] is 0.73 nM.

B4: 16H7 variant, heavy chain I83K (antibody, human IgG2, lambda, V domains shown)
VH: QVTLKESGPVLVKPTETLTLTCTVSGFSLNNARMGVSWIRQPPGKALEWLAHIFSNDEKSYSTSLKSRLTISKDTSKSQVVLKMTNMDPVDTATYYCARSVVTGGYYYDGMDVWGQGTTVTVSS
VL: SYVLTQPPSVSVAPGQTARITCGGNNIGSESVHWYQQKPGQAPVLVVYDDSDRPSGIPERFSGSNSGNTATLTISRVEAGDEADYYCQVWDGNSDHVVFGGGTKLTVLG
Consider B4, for which the “EC50 (nM), Erk-phosphorylation” value in experiment [2] was 0.39 nM.

B5: 16H7 variant, heavy chain D88R + P89A + V90E + S100I (antibody, human IgG2, lambda, V domains shown)
VH: QVTLKESGPVLVKPTETLTLTCTVSGFSLNNARMGVSWIRQPPGKALEWLAHIFSNDEKSYSTSLKSRLTISKDTSKSQVVLIMTNMRAEDTATYYCARIVVTGGYYYDGMDVWGQGTTVTVSS
VL: SYVLTQPPSVSVAPGQTARITCGGNNIGSESVHWYQQKPGQAPVLVVYDDSDRPSGIPERFSGSNSGNTATLTISRVEAGDEADYYCQVWDGNSDHVVFGGGTKLTVLG
Consider B5, for which, in experiment [2], the “EC50 (nM), Erk-phosphorylation” value was 0.14 nM.

B6: 16H7 variant, heavy chain Deletion of Y107 (antibody, human IgG2, lambda, V domains shown)
VH: QVTLKESGPVLVKPTETLTLTCTVSGFSLNNARMGVSWIRQPPGKALEWLAHIFSNDEKSYSTSLKSRLTISKDTSKSQVVLIMTNMDPVDTATYYCARSVVTGGYYDGMDVWGQGTTVTVSS
VL: SYVLTQPPSVSVAPGQTARITCGGNNIGSESVHWYQQKPGQAPVLVVYDDSDRPSGIPERFSGSNSGNTATLTISRVEAGDEADYYCQVWDGNSDHVVFGGGTKLTVLG
With B6, the “EC50 (nM), Erk-phosphorylation” value in experiment [2] was 1.04 nM.

B7: 16H7 variant, light chain D49A + D91A (antibody, human IgG2, lambda, V domains shown)
VH: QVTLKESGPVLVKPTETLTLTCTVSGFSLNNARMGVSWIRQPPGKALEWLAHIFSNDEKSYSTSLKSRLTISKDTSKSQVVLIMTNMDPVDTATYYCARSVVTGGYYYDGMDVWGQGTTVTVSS
VL: SYVLTQPPSVSVAPGQTARITCGGNNIGSESVHWYQQKPGQAPVLVVYADSDRPSGIPERFSGSNSGNTATLTISRVEAGDEADYYCQVWAGNSDHVVFGGGTKLTVLG
As to B7, in experiment [2], the “EC50 (nM), Erk-phosphorylation” value worked out at 1.4 nM.

B8: 16H7 variant, heavy chain E16Q + V24F + I83T + S100I + T119L (antibody, human IgG2, lambda, V domains shown)
VH: QVTLKESGPVLVKPTQTLTLTCTFSGFSLNNARMGVSWIRQPPGKALEWLAHIFSNDEKSYSTSLKSRLTISKDTSKSQVVLTMTNMDPVDTATYYCARIVVTGGYYYDGMDVWGQGTLVTVSS
VL: SYVLTQPPSVSVAPGQTARITCGGNNIGSESVHWYQQKPGQAPVLVVYDDSDRPSGIPERFSGSNSGNTATLTISRVEAGDEADYYCQVWDGNSDHVVFGGGTKLTVLG
As to B8, in experiment [2], the “EC50 (nM), Erk-phosphorylation” value came to 0.24 nM.

B9: 16H7 variant, heavy chain V24F (antibody, human IgG2, lambda, V domains shown)
VH: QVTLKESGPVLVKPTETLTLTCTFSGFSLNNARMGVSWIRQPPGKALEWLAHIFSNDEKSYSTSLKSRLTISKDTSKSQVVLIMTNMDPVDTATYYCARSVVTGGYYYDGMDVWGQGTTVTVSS
VL: SYVLTQPPSVSVAPGQTARITCGGNNIGSESVHWYQQKPGQAPVLVVYDDSDRPSGIPERFSGSNSGNTATLTISRVEAGDEADYYCQVWDGNSDHVVFGGGTKLTVLG
B9: the “EC50 (nM), Erk-phosphorylation” value in experiment [2] was determined as 0.75 nM.

B10: 22H5 Heavy Chain, Insertion of Y107 (SEQ ID NO 405), as printed in Table 7 (antibody, human IgG2, lambda, V domains shown)
VH: QVTLKESGPVLVKPTETLTLTCTVSGFSLNNARMGVSWIRQPPGKALEWLAHIFSNDEKSYSTSLKSRLTISKDTSKSQVVLIMTNMDPVDTATYYCARSVVTGGYYYYDGMDVWGQGTTVTVSS
VL: SYVLTQPPSVSVAPGQTARITCGGNNIGSQSVHWYQQKPGQAPVLVVYDDSDRPSGIPERFSGSNSGNTATLTISRVEAGDEADYYCQVWDNTSDHVVFGGGTKLTVLG
Regarding B10, in experiment [2], the “EC50 (nM), Erk-phosphorylation” value was 0.51 nM.

B11: 16H7 variant, heavy chain S100I (antibody, human IgG2, lambda, V domains shown)
VH: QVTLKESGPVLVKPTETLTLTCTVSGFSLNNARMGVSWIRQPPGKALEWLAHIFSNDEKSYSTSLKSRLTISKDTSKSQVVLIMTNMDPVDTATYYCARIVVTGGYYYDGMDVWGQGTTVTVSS
VL: SYVLTQPPSVSVAPGQTARITCGGNNIGSESVHWYQQKPGQAPVLVVYDDSDRPSGIPERFSGSNSGNTATLTISRVEAGDEADYYCQVWDGNSDHVVFGGGTKLTVLG
With B11, the “EC50 (nM), Erk-phosphorylation” value in experiment [2] was determined as 0.17 nM.

B12: 16H7 variant, heavy chain D88R + P89A + V90E (antibody, human IgG2, lambda, V domains shown)
VH: QVTLKESGPVLVKPTETLTLTCTVSGFSLNNARMGVSWIRQPPGKALEWLAHIFSNDEKSYSTSLKSRLTISKDTSKSQVVLIMTNMRAEDTATYYCARSVVTGGYYYDGMDVWGQGTTVTVSS
VL: SYVLTQPPSVSVAPGQTARITCGGNNIGSESVHWYQQKPGQAPVLVVYDDSDRPSGIPERFSGSNSGNTATLTISRVEAGDEADYYCQVWDGNSDHVVFGGGTKLTVLG
Consider B12, for which the “EC50 (nM), Erk-phosphorylation” value in experiment [2] was determined as 0.35 nM.

B13: 16H7 variant, light chain D49Y (antibody, human IgG2, lambda, V domains shown)
VH: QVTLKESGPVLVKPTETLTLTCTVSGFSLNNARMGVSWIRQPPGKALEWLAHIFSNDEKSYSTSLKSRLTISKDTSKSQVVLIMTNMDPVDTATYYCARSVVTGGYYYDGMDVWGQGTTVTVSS
VL: SYVLTQPPSVSVAPGQTARITCGGNNIGSESVHWYQQKPGQAPVLVVYYDSDRPSGIPERFSGSNSGNTATLTISRVEAGDEADYYCQVWDGNSDHVVFGGGTKLTVLG
Take B13: the “EC50 (nM), Erk-phosphorylation” value in experiment [2] is 0.6 nM.

B14: 16H7 variant, heavy chain D109S (antibody, human IgG2, lambda, V domains shown)
VH: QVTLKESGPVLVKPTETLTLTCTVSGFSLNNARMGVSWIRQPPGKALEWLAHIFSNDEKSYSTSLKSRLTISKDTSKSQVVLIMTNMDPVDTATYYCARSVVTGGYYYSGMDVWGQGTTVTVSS
VL: SYVLTQPPSVSVAPGQTARITCGGNNIGSESVHWYQQKPGQAPVLVVYDDSDRPSGIPERFSGSNSGNTATLTISRVEAGDEADYYCQVWDGNSDHVVFGGGTKLTVLG
On to B14, for which the “EC50 (nM), Erk-phosphorylation” value in experiment [2] is 0.31 nM.

B15: 16H7 (antibody, human IgG2, lambda, V domains shown)
VH: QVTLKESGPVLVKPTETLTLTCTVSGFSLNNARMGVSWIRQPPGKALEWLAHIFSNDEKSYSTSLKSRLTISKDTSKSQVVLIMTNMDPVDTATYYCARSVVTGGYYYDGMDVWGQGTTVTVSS
VL: SYVLTQPPSVSVAPGQTARITCGGNNIGSESVHWYQQKPGQAPVLVVYDDSDRPSGIPERFSGSNSGNTATLTISRVEAGDEADYYCQVWDGNSDHVVFGGGTKLTVLG
With B15, the “EC50 (nM), Erk-phosphorylation” value in experiment [2] was 0.53 nM. Besides, the “Activity (%) = % of FGF21 activity, luciferase reporter, AM-1/D FGFR1c+β-Klotho Luc clone; antibody combined with isotype IgG2k control” value in experiment [3] was 23.5 % of FGF21 activity.

B16: 17C3 (antibody, human IgG2, lambda, V domains shown)
VH: QVTLKESGPVLVKPTETLTLTCTVSGFSLSNARMGVSWIRQPPGKALEWLAHIFSNDEKSYSTSLKSRLTISKDTSKSQVVLTMTNMDPVDTATYYCARILLLGAYYYYGMDVWGQGTTVTVSS
VL: SYVLTQPPSVSVAPGQTARITCGGNNIGSQSVHWYQQKPGQAPVLVVYDDSDRPSGIPERFSGSNSGNTATLTISRVEAGDEADYYCQVWDSSSDHVVFGGGTKLTVLG
notes: fully human monoclonal antibody from XenoMouse hybridoma
On to B16, for which the binding result in experiment [1] is on record as “binds”.

B17: 46D11 (antibody, human IgG2, kappa, V domains shown)
VH: QVTLKEAGPVLVKPTETLTLTCTVSGFSLSNARMGVNWIRQPPGKALEWLAHIFSNDEKSYSTSLKSRLTISKDTSKSQVVLTMTNMDPVDTATYYCARVRIAGDYYYYYGMDVWGQGTTVTVSS
VL: DIQMTQSPSSVSASVGDRVTITCRASQGISIWLAWYQQKPGKAPKLLIYAASSLQSGVPSRFSGSGSGTDFTLTISSLQPEDFATYYCQQANDFPITFGQGTRLEIKR
notes: fully human monoclonal antibody; full chains H13/L13
Take B17: the binding result in experiment [1] was “binds”.

B18: 37D3 (antibody, human IgG2, kappa, V domains shown)
VH: EVHLVESGGGLAKPGGSLRLSCAASGFTFRNAWMSWVRQAPGKGLEWVGRIKSKTDGGTTDYAAPVKGRFTISRDDSKNTLYLQMNSLKTEDTAEYYCITDRVLSYYAMAVWGQGTTVTVSS
VL: DIVMTQSPLSLPVTPGEPASISCRSSQSLLHSNGYNFLDWYLQKPGQSPQLLIYLGSDRASGVPDRFSGSGSGTEFTLKISRVEAEDVGLYYCMQALQTPCSFGQGTKLEIKR
notes: as for B2
Take B18: the binding result in experiment [1] was “binds”.

B19: 16H7 variant, heavy chain E16Q + V24F + I83T (antibody, human IgG2, lambda)
heavy: QVTLKESGPVLVKPTQTLTLTCTFSGFSLNNARMGVSWIRQPPGKALEWLAHIFSNDEKSYSTSLKSRLTISKDTSKSQVVLTMTNMDPVDTATYYCARSVVTGGYYYDGMDVWGQGTTVTVSSASTKGPSVFPLAPCSRSTSESTAALGCLVKDYFPEPVTVSWNSGALTSGVHTFPAVLQSSGLYSLSSVVTVPSSNFGTQTYTCNVDHKPSNTKVDKTVERKCCVECPPCPAPPVAGPSVFLFPPKPKDTLMISRTPEVTCVVVDVSHEDPEVQFNWYVDGVEVHNAKTKPREEQFNSTFRVVSVLTVVHQDWLNGKEYKCKVSNKGLPAPIEKTISKTKGQPREPQVYTLPPSREEMTKNQVSLTCLVKGFYPSDIAVEWESNGQPENNYKTTPPMLDSDGSFFLYSKLTVDKSRWQQGNVFSCSVMHEALHNHYTQKSLSLSPGK
light: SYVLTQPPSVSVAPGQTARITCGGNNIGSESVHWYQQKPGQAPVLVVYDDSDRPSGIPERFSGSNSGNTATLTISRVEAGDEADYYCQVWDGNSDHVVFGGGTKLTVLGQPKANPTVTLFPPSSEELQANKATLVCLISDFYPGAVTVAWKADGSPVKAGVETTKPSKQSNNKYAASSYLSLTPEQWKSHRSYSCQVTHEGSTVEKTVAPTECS
B19: in experiment [2], the “EC50 (nM), Erk-phosphorylation” value came to 0.38 nM.

B20: 16H7 variant, heavy chain E16Q + V24F + I83T + T119L (antibody, human IgG2, lambda)
heavy: QVTLKESGPVLVKPTQTLTLTCTFSGFSLNNARMGVSWIRQPPGKALEWLAHIFSNDEKSYSTSLKSRLTISKDTSKSQVVLTMTNMDPVDTATYYCARSVVTGGYYYDGMDVWGQGTLVTVSSASTKGPSVFPLAPCSRSTSESTAALGCLVKDYFPEPVTVSWNSGALTSGVHTFPAVLQSSGLYSLSSVVTVPSSNFGTQTYTCNVDHKPSNTKVDKTVERKCCVECPPCPAPPVAGPSVFLFPPKPKDTLMISRTPEVTCVVVDVSHEDPEVQFNWYVDGVEVHNAKTKPREEQFNSTFRVVSVLTVVHQDWLNGKEYKCKVSNKGLPAPIEKTISKTKGQPREPQVYTLPPSREEMTKNQVSLTCLVKGFYPSDIAVEWESNGQPENNYKTTPPMLDSDGSFFLYSKLTVDKSRWQQGNVFSCSVMHEALHNHYTQKSLSLSPGK
light: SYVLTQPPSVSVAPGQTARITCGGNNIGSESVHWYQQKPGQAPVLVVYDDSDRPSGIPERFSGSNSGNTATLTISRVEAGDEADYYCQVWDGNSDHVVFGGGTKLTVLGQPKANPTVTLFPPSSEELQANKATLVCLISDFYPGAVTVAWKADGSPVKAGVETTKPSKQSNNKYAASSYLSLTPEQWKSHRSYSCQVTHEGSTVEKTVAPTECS
As for B20, the “EC50 (nM), Erk-phosphorylation” value in experiment [2] amounted to 0.36 nM.
